Experiment [1] addresses T1, endogenous human Tie1 (primary human endothelial cells, HUVEC, human tissue sections, SW480 cells) (human, UniProt P35590 25-1138).
T1 construct: also called endogenous Tie1; HDMEC
In words: immunofluorescence, HDMEC.

Experiment [2] deals with T2, V5-tagged full length human Tie1 expressed in COS1 cells (pcDNA3-Tie1-V5) (human, UniProt P35590 25-1138).
T2 construct: Cell lysates in Western blot and immunoprecipitation, fixed cells in immunofluorescence; also called Tie1-transfected; transfected Tie1
In words: Western blot, Tie1-V5-transfected COS1 cells. The method, then: (§1) COS1 cells were transfected with pcDNA3-Tie1-V5 (1 μg DNA per 10 cm cell culture plate) using FUGENE 6 (Roche) according to manufacturer's instruction and incubated for 48 h before stimulation. For immunoprecipitation, Tie1 transfected cells and HMVEC cells were lysed in DOC-RIPA lysis buffer (50 mM Tris-HCl pH 8.0, 150 mM NaCl, 1% Triton-X-100, 0.1% SDS, 1% DOC, 10 mM EDTA) supplemented with aprotinin, leupeptin, PMSF and sodium vanadate. Immunoprecipitation was carried out from equal amount of cell lysates by incubating with polyclonal anti-human Tie1 antibodies (R&D), monoclonal anti-V5 antibodies (Invitrogen) or altogether 23 anti-Tie1 antibodies (1 μg/ml) for 1 to 2 h followed by incubation with protein G-Sepharose (Amersham Pharmacia Biotech AB) for 1 h. The immunoprecipitates were washed twice with PBS-T and twice with PBS, followed by elution with the Laemmli buffer and separation in 8% SDS-PAGE. The blots were probed with the 23 anti-Tie1 antibodies (5 μg/ml) and subsequently anti-human Fc antibodies conjugated with HRP.
(§2) Next, to find out if the anti-Tie1 antibodies recognize Tie1 in living cells, those cells were studied by immunofluorescence staining.
(Immunoblotting shows a protein as a band on a membrane.)

Experiment [3] concerns the target T1, endogenous human Tie1 (primary human …). In words: Western blot, HDMEC; Western blot, HDMEC. On the procedure:
as §1, §2

Changes are numbered by the printed parent chain.

The values below come from patent publication US20050136053A1 (DYAX, published 2005).

T1 sequence (P35590 25-1138): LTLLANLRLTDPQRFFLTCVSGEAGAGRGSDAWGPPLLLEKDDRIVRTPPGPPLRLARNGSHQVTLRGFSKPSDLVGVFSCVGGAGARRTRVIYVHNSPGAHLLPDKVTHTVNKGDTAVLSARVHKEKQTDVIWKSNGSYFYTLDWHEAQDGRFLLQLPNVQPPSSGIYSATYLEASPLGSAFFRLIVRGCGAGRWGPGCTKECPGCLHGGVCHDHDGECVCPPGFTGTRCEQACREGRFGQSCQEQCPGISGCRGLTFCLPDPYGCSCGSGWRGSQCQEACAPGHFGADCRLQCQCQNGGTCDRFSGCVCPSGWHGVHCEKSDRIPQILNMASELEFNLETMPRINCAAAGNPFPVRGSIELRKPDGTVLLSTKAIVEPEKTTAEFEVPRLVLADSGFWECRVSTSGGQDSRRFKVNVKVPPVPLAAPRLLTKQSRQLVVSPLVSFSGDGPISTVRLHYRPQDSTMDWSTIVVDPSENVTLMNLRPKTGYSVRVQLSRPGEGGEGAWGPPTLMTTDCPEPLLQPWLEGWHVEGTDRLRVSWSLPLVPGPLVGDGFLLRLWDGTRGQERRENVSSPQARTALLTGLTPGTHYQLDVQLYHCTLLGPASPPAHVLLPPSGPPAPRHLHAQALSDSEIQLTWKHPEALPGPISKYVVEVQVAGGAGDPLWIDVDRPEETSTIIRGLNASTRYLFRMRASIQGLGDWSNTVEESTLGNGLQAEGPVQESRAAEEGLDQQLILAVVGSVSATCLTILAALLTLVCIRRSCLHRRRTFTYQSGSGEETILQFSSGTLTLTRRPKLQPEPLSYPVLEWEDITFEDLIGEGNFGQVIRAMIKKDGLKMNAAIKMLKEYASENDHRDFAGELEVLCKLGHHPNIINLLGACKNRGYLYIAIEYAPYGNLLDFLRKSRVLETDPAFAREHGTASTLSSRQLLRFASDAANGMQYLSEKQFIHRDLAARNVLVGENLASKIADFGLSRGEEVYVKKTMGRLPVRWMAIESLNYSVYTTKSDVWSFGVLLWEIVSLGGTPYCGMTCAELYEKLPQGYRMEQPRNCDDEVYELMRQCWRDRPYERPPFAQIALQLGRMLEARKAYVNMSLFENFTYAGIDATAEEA
T2 sequence (P35590 25-1138): as above

B1: anti-Tie1 antibody G2, IgG (antibody, V domains shown)
VH: EVQLLESGGGLVQPGGSLRLSCAASGFTFSSYKMGWVRQAPGRGLEWVSSIYPSGGWTHYADSVKGRFTISRDNSKNTLYLQMNSLRAEDTAVYYCARVLLHYFDYWGQGTLVTVSS
VL: QSVLTQPASVSGSPGQSITISCTGTSSDVGGYKYVSWYQQHPGKAPKLIISDVNNRPSGVSDRFSGSKSGNTASLTISGLQAEDDGDYYCSSYASSSYTSSTTWVFGG
notes: VL entry is lambda and stops within FR4
For B1, the binding result in experiment [1] and in experiment [2] was “binds” throughout.

B2: anti-Tie1 antibody s-B2, IgG (antibody, V domains shown)
VH: EVQLLESGGGLVQPGGSLRLSCAASGFTFSIYGMAWVRQAPGKGLEWVSVISPSGGQTFYADSVKGRFTISRDNSKNTLYLQMNSLRAEDTAVYYCARVYYYGMDVWGQGTTVTVSS
VL: DIQMTQSPATLSLSPGERATLSCRASQSVSSYLAWYQQKPGQAPRLLIYDASNRATGIPARFSGSGSETDFTLTISSLEPEDFAVYYCQQRSKWPRTFGQGTKLEIK
notes: VH entry is a raw phagemid read that runs into CH1
Turning to B2, the binding result in experiment [2] and in experiment [3] was “binds” in each case.

B3: anti-Tie1 antibody s-D11, IgG (antibody, V domains shown)
VH: EVQLLESGGGLVQPGGSLRLSCAASGFTFSGYAMWWVRQAPGKGLEWVSSISPSGGATAYADSVKGRFTISRDNSKNTLYLQMNSLRAEDTAVYYCARDAGSYYWGWFDPWGQGTLVTVSS
VL: B2 VL with V29I, A43P, N53S, A55V, S67F, E68G, Q89L, K93S
notes: VH entry is a raw phagemid read that runs into CH1; also called Di1
As to B3, the binding result in experiment [2] and in experiment [3] was “binds” in each case.
